Source: patent US11866736B2, “Protein prostheses for mitochondrial diseases or conditions” (The General Hospital Corporation, priority 2015, dated 2024)
Positions count from the first letter of the chain named. Numbers in names are those of the source.

B1: LbNOX: water-forming NADH oxidase endogenous to Lactobacillus brevis; tested with C-terminal FLAG tag (protein, listed as Lactobacillus brevis)
chain: KVTVVGCTHAGTFAIKQILAEHPDAEVTVYERNDVISFLSCGIALYLGGKVADPQGLFYSSPEELQKLGANVQMNHNVLAIDPDQKTVTVEDLTNHAQTTESYDKLVMTSGSWPIVPKIPGIDSDRVKLCKNWAHAQALIEDAKEAKRITVIGAGYIGAELAEAYSTTGHDVTLIDAMARVMPKYFDADFTDVIEQDYRDHGVQLALGETVESFTDSATGLTIKTDKNSYETDLAILCIGFRPNTDLLKGKVDMAPNGAIITDDYMRSSNPDIFAAGDSAAVHYNPTHQNAYIPLATNAVRQGILVGKNLVKPTVKYMGTQSSSGLALYDRTIVSTGLTLAAAKQQGLNAEQVIVEDNYRPEFMPSTEPVLMSLVFDPDTHRILGGALMSKYDVSQSANTLSVCIQNENTIDDLAMVDMLFQPNFDRPFNYLNILAQAAQAKVAQSVNA
modifications: C-terminal FLAG tag
B2: TPNOX: NADPH-specific quintuple mutant (G159A/D177A/A178R/M179S/P184R) of LbNOX (protein)
chain: B1 chain with G158A, D176A, A177R, M178S, P183R

Key:
[1] = Continuous assay of H2O2 production (Amplex Red/HRP/SOD); type: biochemical
Procedure: Reaction mixture contained: 50 mM NaPi pH 7.5, 150 mM NaCl buffer, 350 μM NADH, SOD 130U and 100 μM D-glucose at 37° C. At times indicated LbNOX and glucose oxidase were added. Glucose oxidase was used to validate the assay, since this enzyme produces H2O2 from oxygen and D-glucose. Rates on H2O2-forming activity of LbNOX were compared to rates of NADH disappearance in parallel experiments. It was estimated that around 1.7±0.3% of H2O2 is produced by LbNOX (n=4).
H2O2 production was monitored in a continuous assay followed by the increase in absorbance at 570 nm upon resorufin formation (ε570=54 mM^−1 cm^−1). It was shown previously that presence of NADH in the assay mixture results in the oxidation of AMPLEX® Red dye in the HRP-dependent manner and this process is greatly diminished by supplementation of superoxide dismutase (SOD) (Votyakova, et al., Arch. Biochem. Biophys., 431:138, 2004). […] The reaction was preincubated at 37° C. for 3 min before LbNOX was added (0.15 μg) and subsequently after LbNOX-dependent rate of H2O2 production was recorded, 4 U of glucose oxidase (Sigma, G2133-10 KU) was added (FIG. 6). […] H2O2-forming activity of LbNOX was compared to the total NADH oxidase activity which was determined in a parallel experiment when the decrease of NADH absorbance at 340 nm was monitored under identical conditions.

[2] = Enzyme-monitored turnover (stopped flow, FAD absorbance at 455 nm); type: biochemical
Procedure: The experiment was carried out by monitoring the time dependence of FAD oxidation state via its absorbance at 455 nm in 50 mM NaPi pH7.5 150 mM NaCl buffer at 4° C. Air-saturated LbNOX (1.9, 2.9, 5.6 and 9.18 μM FAD active sites after mixing) and air-saturated solution of NADH (2 mM after mixing). The traces at 455 nm are treated as records of the rate of catalysis as a continuous function of the concentration of O2 (the limiting substrate).
The reaction of LbNOX with oxygen was studied by the enzyme-monitored turnover method (Gibson, et al., J. Biol. Chem., 239:3927, 1964; and Tapley, et al., J. Biol. Chem., 282:10263, 2007). Rapid reaction studies were carried out at 4° C. in a SX20 stopped flow instrument (Applied Photophysics, UK) equipped with a diode array detector. To follow the redox state of the FAD cofactor, LbNOX enzyme (1.9, 2.9, 5.6 and 9.18 μM FAD active sites after mixing) was mixed with NADH (2 mM after mixing), both prepared in air-saturated assay buffer (50 mM Na2HPO4, pH 7.5, 150 mM NaCl) and absorbance at 455 nm was monitored over time. Solubility of oxygen at 4° C. was calculated from oxygen solubility table at corresponding salinity of the assay buffer which is ˜380 μM. Results represent (n=3) independent experiments. The traces at 455 nm reflect the conversion of oxidized to reduced enzyme forms and are treated as previously described (Gibson, et al., J. Biol. Chem., 239:3927, 1964), where the area under the curve is proportional to the concentration of oxygen which is a limiting substrate under these conditions. […] We therefore estimated that apparent KM for O2 to be less than 2 μM. Based on the enzyme concentration (1.9-9.18 μM) and time it took to consume O2 (8.12-1.67 sec), apparent kcat can be calculated (FIG. 7).

HeLa cells = test: Tolerability of doxycycline-inducible expression in HeLa cells; type: cell-based, human
Text: Lentiviral infection was used to generate HeLa cells that expressed untargeted or mitochondria-targeted TPNOX (referred to as TPNOX and mitoTPNOX, respectively) under the control of a doxycycline-inducible promoter (TRE3G) (FIG. 16A).

Molecule | H2O2 relative to H2O production during catalytic cycle [1] | H2O2 produced (H2O2-forming rate compared to rate of NADH disappearance) ([1]; 350 μM NADH, 37° C., n=4) | apparent KM for O2, fold lower than the concentration of oxygen in human venous blood [2] | apparent KM for O2 expressed as % O2 ([2]; estimated from enzyme-monitored turnover) [% O2] | Km ([2]; estimated from enzyme-monitored turnover, 4° C., read-out: apparent KM for O2) [µM] | tolerability of expression (cell morphology, viability, proliferation) (HeLa cells)
B1 | 1-2 % by mole | around 1.7±0.3% | more than 10 fold | ~0.17 | < 2 | –
B2 | – | – | – | – | – | safely tolerated
